From IntAct's records for PubMed 29892012

B1: Late cornified envelope protein 1B (Homo sapiens), Q5T7P3 (parent)
chain: MSCQQNQQQCQPPPKCIPKCPPKCLTPRCPPKCPPKCPPVSSCCSVSSGGCCGSSSGGSCGSSSGGCCSSGGGGCCLSHHRRRRSHCHRPQSSGCCSQPSGGSSCCGGGSGQHSGGCC
partner: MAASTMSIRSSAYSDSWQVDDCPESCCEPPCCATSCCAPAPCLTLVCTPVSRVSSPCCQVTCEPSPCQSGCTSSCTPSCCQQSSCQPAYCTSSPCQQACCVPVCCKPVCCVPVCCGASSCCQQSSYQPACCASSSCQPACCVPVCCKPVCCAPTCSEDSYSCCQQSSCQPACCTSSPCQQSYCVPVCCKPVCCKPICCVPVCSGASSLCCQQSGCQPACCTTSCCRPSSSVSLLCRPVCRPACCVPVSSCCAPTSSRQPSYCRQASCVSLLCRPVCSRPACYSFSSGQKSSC
B2: U3 small nucleolar RNA-associated protein 25 homolog (Homo sapiens), Q68CQ4 (parent)
chain: MGKRGSRSQSQLLNTLTKKQKKHLRDFGEEHPFYDRVSRKEAKPQICQLSESSDSSDSESDSESEPQQVSGYHRLLATLKNVSEEEEEDEEEEEEEDSIVDDAEMNDEDGGSDVSVEEEMAAESTESPENVALSADPEGKEDGEEPPGTSQTSPEEFTDAKHESLFSLETNFLEEESGDNSSLKASQDPFLQHVNKELKEKAIQAVATNPKTTHELKWPILGQLFFSSKFQKLETFKPPKDIDLKSLHLQKPLESTWTKTNSQFLSGPQKSSSPFTPLQKELFLIMNSYRDLFYPERTALKNGEEIRHVYCLHVINHILKANAQVLGNNSRRRSQKFGVGDDDDFRDQGLTRPKVLIVVPFREAALRVVQLFISLLEGDSKKKIIVSNKKRFQGEYGSDPEERPPNLKRPEDYEAVFVGNIDDHFRIGVAILQRSIRLYAPFYSSDILIASPLGLRTIIGGEGEKKRDFDFLSSIELLIIDQADIYLMQNWEHVLHLMNHMNLLPLDSHGVDFSRVRMWSLNNWSKYYRQTLLFGALQDAQINSVFNKYCVNMQGQVAVRNVPMTGSISHVLVQLPHVFQRMEAENLASVIDARFNFFVNKILPQYRDAVMSHTLIYIPSYFDFVRLRNYFKKEELNFTHICEYTQKSGVSRARHFFLQGEKQFLLFTERFHFYKRYTIKGIRNLIFYELPTYPHFYSEICNMLRATNRGEEATWTCTVLYSKYDAQRLAAVVGVERAAQMLQSNKNVHLFITGEK
partner: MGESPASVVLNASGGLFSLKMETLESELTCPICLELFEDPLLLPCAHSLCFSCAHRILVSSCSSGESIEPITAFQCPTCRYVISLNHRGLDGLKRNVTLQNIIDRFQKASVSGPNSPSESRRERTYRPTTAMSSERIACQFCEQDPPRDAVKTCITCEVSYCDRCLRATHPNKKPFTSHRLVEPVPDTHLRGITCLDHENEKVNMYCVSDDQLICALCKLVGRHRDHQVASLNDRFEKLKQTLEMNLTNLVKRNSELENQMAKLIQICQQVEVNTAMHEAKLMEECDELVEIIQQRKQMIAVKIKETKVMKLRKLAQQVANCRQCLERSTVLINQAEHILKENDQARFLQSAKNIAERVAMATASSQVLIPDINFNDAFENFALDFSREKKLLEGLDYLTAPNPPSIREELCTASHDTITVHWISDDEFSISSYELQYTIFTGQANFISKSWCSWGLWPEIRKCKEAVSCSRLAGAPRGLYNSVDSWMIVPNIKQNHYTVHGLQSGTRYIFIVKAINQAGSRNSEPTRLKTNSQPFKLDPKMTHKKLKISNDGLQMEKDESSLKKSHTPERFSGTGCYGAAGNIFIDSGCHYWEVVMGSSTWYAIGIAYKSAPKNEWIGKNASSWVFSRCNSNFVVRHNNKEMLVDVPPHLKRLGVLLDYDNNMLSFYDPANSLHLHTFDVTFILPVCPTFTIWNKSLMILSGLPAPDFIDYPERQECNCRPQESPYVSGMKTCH
B3: Methanethiol oxidase (Homo sapiens), Q13228 (parent)
chain: MATKCGNCGPGYSTPLEAMKGPREEIVYLPCIYRNTGTEAPDYLATVDVDPKSPQYCQVIHRLPMPNLKDELHHSGWNTCSSCFGDSTKSRTKLVLPSLISSRIYVVDVGSEPRAPKLHKVIEPKDIHAKCELAFLHTSHCLASGEVMISSLGDVKGNGKGGFVLLDGETFEVKGTWERPGGAAPLGYDFWYQPRHNVMISTEWAAPNVLRDGFNPADVEAGLYGSHLYVWDWQRHEIVQTLSLKDGLIPLEIRFLHNPDAAQGFVGCALSSTIQRFYKNEGGTWSVEKVIQVPPKKVKGWLLPEMPGLITDILLSLDDRFLYFSNWLHGDLRQYDISDPQRPRLTGQLFLGGSIVKGGPVQVLEDEELKSQPEPLVVKGKRVAGGPQMIQLSLDGKRLYITTSLYSAWDKQFYPDLIREGSVMLQVDVDTVKGGLKLNPNFLVDFGKEPLGPALAHELRYPGGDCSSDIWI
partner: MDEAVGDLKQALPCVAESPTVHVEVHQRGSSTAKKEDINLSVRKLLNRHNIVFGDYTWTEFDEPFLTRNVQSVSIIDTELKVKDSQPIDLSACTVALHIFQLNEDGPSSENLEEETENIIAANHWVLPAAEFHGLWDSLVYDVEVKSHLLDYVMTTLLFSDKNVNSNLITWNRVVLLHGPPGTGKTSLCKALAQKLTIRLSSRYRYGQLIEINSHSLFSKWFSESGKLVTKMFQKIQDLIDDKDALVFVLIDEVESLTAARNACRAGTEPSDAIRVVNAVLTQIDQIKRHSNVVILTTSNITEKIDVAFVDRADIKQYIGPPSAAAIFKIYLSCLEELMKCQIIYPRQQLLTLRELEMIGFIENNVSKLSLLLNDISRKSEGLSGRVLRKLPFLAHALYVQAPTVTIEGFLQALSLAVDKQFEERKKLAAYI
B4: Late cornified envelope protein 1B (Homo sapiens), Q5T7P3 (parent)
chain: B1 chain
partner: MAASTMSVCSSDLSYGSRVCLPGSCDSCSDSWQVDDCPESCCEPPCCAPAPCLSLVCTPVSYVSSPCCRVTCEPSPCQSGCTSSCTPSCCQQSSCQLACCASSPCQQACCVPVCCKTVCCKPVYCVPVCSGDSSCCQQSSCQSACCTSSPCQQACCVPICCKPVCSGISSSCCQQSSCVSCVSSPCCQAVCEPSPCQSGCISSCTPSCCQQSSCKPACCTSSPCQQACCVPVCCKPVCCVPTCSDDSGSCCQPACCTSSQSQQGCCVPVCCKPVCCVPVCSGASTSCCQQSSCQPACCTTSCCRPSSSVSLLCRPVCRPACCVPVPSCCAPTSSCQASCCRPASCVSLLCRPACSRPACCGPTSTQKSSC
B5: Galectin-8 (Homo sapiens), O00214 (parent)
chain: MMLSLNNLQNIIYNPVIPFVGTIPDQLDPGTLIVIRGHVPSDADRFQVDLQNGSSMKPRADVAFHFNPRFKRAGCIVCNTLINEKWGREEITYDTPFKREKSFEIVIMVLKDKFQVAVNGKHTLLYGHRIGPEKIDTLGIYGKVNIHSIGFSFSSDLQSTQASSLELTEISRENVPKSGTPQLRLPFAARLNTPMGPGRTVVVKGEVNANAKSFNVDLLAGKSKDIALHLNPRLNIKAFVRNSFLQESWGEEERNITSFPFSPGMYFEMIIYCDVREFKVAVNGVHSLEYKHRFKELSSIDTLEINGDIHLLEVRSW
partner: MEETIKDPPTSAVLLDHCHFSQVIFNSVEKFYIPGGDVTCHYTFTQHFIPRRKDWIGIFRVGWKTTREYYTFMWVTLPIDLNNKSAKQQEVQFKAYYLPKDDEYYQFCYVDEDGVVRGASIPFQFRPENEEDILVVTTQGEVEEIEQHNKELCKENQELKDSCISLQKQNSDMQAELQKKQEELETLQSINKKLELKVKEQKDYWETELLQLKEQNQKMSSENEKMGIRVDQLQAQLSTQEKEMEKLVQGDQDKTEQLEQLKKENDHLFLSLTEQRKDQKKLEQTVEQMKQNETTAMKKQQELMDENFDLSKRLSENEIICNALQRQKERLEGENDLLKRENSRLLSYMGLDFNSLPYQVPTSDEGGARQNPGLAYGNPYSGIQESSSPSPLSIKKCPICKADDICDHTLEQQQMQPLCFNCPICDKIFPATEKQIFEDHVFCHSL

Variants of: B1
Conditions: with kr109_human KRTAP10-9, P60411

Variant | effect of a mutation on the interaction
MSCQQNQQQCQPPPKYIPKCPPKCLTPRCPPKCPPKCPPVSSCCSVSSGGCCGSSSGGSCGSSSGGCCSSGGGGCCLSHHRRRRSHCHRPQSSGCCSQPSGGSSCCGGGSGQHSGGCC [C16Y] | disrupting interaction strength

Variants of: B2
Conditions: with trim1_human MID2, Q9UJV3

Variant | effect of a mutation on the interaction
D399E | with no effect

Variants of: B3
Conditions: with pch2_human TRIP13, Q15645

Variant | effect of a mutation on the interaction
MATKCGNCGPGYSTPLEAMKGPREEIVYLPCIYRNTGTEAPDYLATVDVDPKSPQYCQVIHRLPMPNLKDELHHSGWNTCSSCFGDSTKSRTKLVLPSLISSRIYVVDVGSEPRAPKLHKVIEPKDIHAKCELAFLHTSHCLASGEVMISSLGDVKGNGKGGFVLLDGETFEVKGTWERPGGAAPLGYDFWYQPRHNVMISTEWAAPNVLRDGFNPADVEAGLYGSHLYVWDWQRHEIVQTLSLKDGLIPLEIRFLHNPDAAQGFVGCALSSTIQRFYKNEGGTWSVEKVIQVPPKKVKGWLLPEMPGLITDILLSLDDRFLYFSNWLHGDLRQYDISDPQRPRLTGQLFLGGSIVKGGPVQVLEDEELKSQPEPLVVKGKRVAGGPQMIQLSLDGKCLYITTSLYSAWDKQFYPDLIREGSVMLQVDVDTVKGGLKLNPNFLVDFGKEPLGPALAHELRYPGGDCSSDIWI [R398C] | with no effect

Variants of: B4
Conditions: with kr107_human KRTAP10-7, P60409

Variant | effect of a mutation on the interaction
MSCQQNQQQCQPPPKYIPKCPPKCLTPRCPPKCPPKCPPVSSCCSVSSGGCCGSSSGGSCGSSSGGCCSSGGGGCCLSHHRRRRSHCHRPQSSGCCSQPSGGSSCCGGGSGQHSGGCC [C16Y] | disrupting interaction strength

Variants of: B5
Conditions: with caco2_human CALCOCO2, Q13137

Variant | effect of a mutation on the interaction
MMLSLNNLQNIIYNPVIPFVGTIPDQLDPGTLIVIRGHVPSDADRFQVDLQNGSSMKPRADVAFHFNPRFKRAGCIVCNTLINEKWGREEITYDTPFKREKSFEIVIMVLKDKFQVAVNGKHTLLYGHRIGPEKIDTLGIYGKVNIHSIGFSFSSDLQSTQASSLELTEISRENVPKSGTPQLRLPFAARLNTTMGPGRTVVVKGEVNANAKSFNVDLLAGKSKDIALHLNPRLNIKAFVRNSFLQESWGEEERNITSFPFSPGMYFEMIIYCDVREFKVAVNGVHSLEYKHRFKELSSIDTLEINGDIHLLEVRSW [P194T] | with no effect
